Target: T1, human CD123 (interleukin-3 receptor alpha subunit) (human, UniProt P26951 19-378)
T1 construct: Native CD123 on patients' cells; also called IL-3Rα; Interleukine-3 Receptor alpha
Test: average CD123 receptor saturation on patients' cells after intravenous IMGN632, Schedule A, Cohorts 1-6 (method not described)

T1 sequence (P26951 19-378 limits assumed): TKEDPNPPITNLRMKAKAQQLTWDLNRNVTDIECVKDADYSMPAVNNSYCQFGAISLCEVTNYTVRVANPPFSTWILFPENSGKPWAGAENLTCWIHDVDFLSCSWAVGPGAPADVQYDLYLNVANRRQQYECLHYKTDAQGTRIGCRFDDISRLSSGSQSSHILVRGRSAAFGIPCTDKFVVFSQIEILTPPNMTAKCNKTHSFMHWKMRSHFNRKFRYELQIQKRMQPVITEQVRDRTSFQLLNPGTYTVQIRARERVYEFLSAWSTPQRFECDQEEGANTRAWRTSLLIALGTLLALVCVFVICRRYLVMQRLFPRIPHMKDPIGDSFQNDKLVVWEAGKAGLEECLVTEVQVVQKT

B1: IMGN632 (immunoconjugate of the anti-CD123 huCD123-6Gv4.7 antibody linked to DGN549-C) (antibody, V domains shown)
VH: QVQLVQSGAEVKKPGASVKVSCKASGYIFTSSIMHWVRQAPGQGLEWIGYIKPYNDGTKYNEKFKGRATLTSDRSTSTAYMELSSLRSEDTAVYYCAREGGNDYYDTMDYWGQGTLVTVSS
VL: DIQMTQSPSSLSASVGDRVTITCRASQDINSYLSWFQQKPGKAPKTLIYRVNRLVDGVPSRFSGSGSGNDYTLTISSLQPEDFATYYCLQYDAFPYTFGQGTKVEIKR
modifications: DGN549-C cytotoxic agent (peptide linker) covalently linked through a cysteine residue (huCD123-6Gv7-C442 heavy chain); average of 1.5 to 2.1 DGN549-C per antibody, mostly the sulfonated form
notes: also called anti-CD123 immunoconjugate; G4723A-DGN549-C
binding result: binds
